How the values were obtained:
[1] = molecular target: ED-B fibronectin antigen protein (recombinant), bound to CNBr activated sepharose 4B (UniProt P02751); assay: ED-B sepharose column, % of total radioactivity bound; Study A; inositol 25 mg/mL; day 1
[2] = molecular target: ED-B fibronectin antigen protein (recombinant), bound to CNBr activated sepharose 4B (UniProt P02751); assay: ED-B sepharose column, % of total radioactivity bound; Study A; maltose 10 mg/mL; day 0
[3] = molecular target: ED-B fibronectin antigen protein (recombinant), bound to CNBr activated sepharose 4B (UniProt P02751); assay: ED-B sepharose column, % of total radioactivity bound; Study B3; thioglycerol 10 mg/mL; day 7

Chain of UniProt P02751 (P02751 1266-1356 limits assumed): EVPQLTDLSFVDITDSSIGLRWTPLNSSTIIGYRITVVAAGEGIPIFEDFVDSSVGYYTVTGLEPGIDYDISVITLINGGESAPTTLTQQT
Chain of 131I L19-SIP (radioiodinated L19 SIP homodimer) (chain): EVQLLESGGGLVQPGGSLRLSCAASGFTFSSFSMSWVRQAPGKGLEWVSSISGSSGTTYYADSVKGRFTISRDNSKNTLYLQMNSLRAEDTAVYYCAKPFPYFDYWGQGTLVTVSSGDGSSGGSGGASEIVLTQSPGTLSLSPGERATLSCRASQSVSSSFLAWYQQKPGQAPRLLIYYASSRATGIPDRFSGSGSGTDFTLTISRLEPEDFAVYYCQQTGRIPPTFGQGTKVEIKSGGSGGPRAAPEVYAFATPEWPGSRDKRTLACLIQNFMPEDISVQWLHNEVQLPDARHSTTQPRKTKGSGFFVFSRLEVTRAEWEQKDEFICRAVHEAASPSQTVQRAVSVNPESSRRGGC
Chain of 131I L19-SIP (radioiodinated L19 SIP homodimer) (chain): as above

Immunoreactivity (%) [1]: 88.7%
Immunoreactivity (%) [2]: 92.8%
Immunoreactivity (IR) (%) [3]: 47.1%
Substance: 131I L19-SIP (radioiodinated L19 SIP homodimer)
